The source of these data is publication PMC12213002.

Data set [1] in a line: endogenous DDX3X western blot, HEK293T.
A short description of data set [2]: total DDX3X western blot, siRNA knock-down/rescue. The settings on record: glycan lost; control: siDDX3X + SIR FLAG-DDX3X WT.
Data set [3] is described as follows: MG132 rescue of FLAG-DDX3X levels, P2A-GFP normalised. The following applies: glycan lost; control: FLAG-DDX3X WT.
Data set [4] in a line: cycloheximide chase, FLAG western blot, HEK293T. The following applies: glycan lost; control: FLAG-DDX3X WT.
Data set [5] in a line: FLAG western blot, transfected HEK293T, normalised to β-tubulin. The settings on record: glycan lost; control: FLAG-DDX3X WT.

B1: DDX3X: OGT siRNA (protein)
parent chain: MSHVAVENALGLDQQFAGLDLNSSDNQSGGSTASKGRYIPPHLRNREATKGFYDKDSSGWSSSKDKDAYSSFGSRSDSRGKSSFFSDRGSGSRGRFDDRGRSDYDGIGSRGDRSGFGKFERGGNSRWCDKSDEDDWSKPLPPSERLEQELFSGGNTGINFEKYDDIPVEATGNNCPPHIESFSDVEMGEIIMGNIELTRYTRPTPVQKHAIPIIKEKRDLMACAQTGSGKTAAFLLPILSQIYSDGPGEALRAMKENGRYGRRKQYPISLVLAPTRELAVQIYEEARKFSYRSRVRPCVVYGGADIGQQIRDLERGCHLLVATPGRLVDMMERGKIGLDFCKYLVLDEADRMLDMGFEPQIRRIVEQDTMPPKGVRHTMMFSATFPKEIQMLARDFLDEYIFLAVGRVGSTSENITQKVVWVEESDKRSFLLDLLNATGKDSLTLVFVETKKGADSLEDFLYHEGYACTSIHGDRSQRDREEALHQFRSGKSPILVATAVAARGLDISNVKHVINFDLPSDIEEYVHRIGRTGRVGNLGLATSFFNERNINITKDLLDLLVEAKQEVPSWLENMAYEHHYKGSSRGRSKSSRFSGGFGARDYRQSSGASSSSFSSSRASSSRSGGGGHGSSRGFGGGGYGGFYNSDGYGGNYNSQGVDWWGN
Regarding B1, the expression_or_secretion entry in data set [1] (glycan lost, control: siRNA against firefly luciferase) was “decreases”.

B2: DDX3X: SIR FLAG-DDX3X Ser584Ala (protein)
parent chain: B1 parent chain
For the protein B2, the expression_or_secretion entry in data set [2] was “decreases”.

B3: DDX3X: FLAG-OGT WT over-expression (protein)
parent chain: B1 parent chain
In the case of B3, the expression_or_secretion entry in data set [1] (glycan gained, control: FLAG-empty vector) is on record as “increases”.

B4: DDX3X: Ser584Ala (protein)
parent chain: B1 parent chain
For the protein B4, the “degradation_or_half_life, other: proteasome-dependent loss of protein” value in data set [3] is given as “decreases”. Besides, in data set [4], the “degradation_or_half_life, other: turnover rate” value is on record as “decreases”. In addition, the “expression_or_secretion, percent_of_wt” value in data set [5] was “decreases”.
